Publication PMC4329188, “Expression, purification, crystallization, and preliminary X-ray crystallographic studies of the human adiponectin receptors, AdipoR1 and AdipoR2” (Journal of Structural and Functional Genomics, 2015)

Target: T1, purified AdipoR1Δ88 (human adiponectin receptor 1, residues 89–375), as used for SPR and antibody screening (human, UniProt Q96A54 89-375)
T1 construct: adiponectin receptor 1 (AdipoR1), human, residues 89-375 (N-terminally truncated mutant Δ88); Same construct as m1; SDS-denatured in the dot blot; source: Trichoplusia ni (High Five) insect cells, baculovirus; purified; reconstituted into liposomes for SPR and ELISA
T1 sequence (looked up): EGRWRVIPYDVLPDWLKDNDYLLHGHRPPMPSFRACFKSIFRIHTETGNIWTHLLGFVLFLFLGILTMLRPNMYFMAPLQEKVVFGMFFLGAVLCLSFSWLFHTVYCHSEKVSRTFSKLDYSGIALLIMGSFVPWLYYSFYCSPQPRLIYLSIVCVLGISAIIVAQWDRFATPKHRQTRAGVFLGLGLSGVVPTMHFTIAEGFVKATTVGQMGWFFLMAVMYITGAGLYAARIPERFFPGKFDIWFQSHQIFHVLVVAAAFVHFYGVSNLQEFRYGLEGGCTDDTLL
Test: SPR; purified AdipoR1Δ88 reconstituted into liposomes (egg yolk PC, biotinyl-PE) and immobilised on a sensor chip SA; osmotin 0.5–8 μM as analyte; Biacore T200
Settings: both partners purified

B1: osmotin (ligand)
chain: ATIEVRNNCPYTVWAASTPIGGGRRLDRGQTWVINAPRGTKMARVWGRTNCNFNAAGRGTCQTGDCGGVLQCTGWGKPPNTLAEYALDQFSGLDFWDISLVDGFNIPMTFAPTNPSGGKCHAIHCTANINGECPRELRVPGGCNNPCTTFGGQQYCCTQGPCGPTFFSKFFKQRCPDAYSYPQDDPTSTFTCPGGSTNYRVIFCPNGQAHPNFPLEMPGSDEVAK
  Kd: 700 nM
